Laboratory results as given in US12564623B2, “Methods and compositions for treating cancer” (The University of Chicago, priority 2017, dated 2026).

How the values were obtained:
CD95 = CD95 immunoreactivity and ELANE uptake in non-cancer cells; assay type: cell-based
Method: Non-cancer cells were treated with ELANE (50 nM) for 1 hr, fixed in 10% formalin, and stained with N- or C-terminal specific anti-CD95 antibodies. Hoechst 33342 solution was used for nuclear staining. Images were taken under 40×. […] Non-cancer cells were treated with ELANE (100 nM) in the presence or absence of a broad endocytosis inhibitor Dynasore (80 μM) for 30 mins. ELANE catalytic activity in cell lysates was assessed using a chromogenic substrate assay.

Healthy non-cancer cells = test: Killing program signaling in non-cancer cells; assay type: cell-based, Human and mouse; details: 50 nM
Method: (FIG. 11A) Healthy non-cancer cells were treated with ELANE (50 nM) for 4 hrs, and phosphorylated and total ERK, NFKB, and JNK were quantified by immunoblotting. Immunoblots for BMDMs are shown as an example. (FIG. 11B) Cells were treated with various doses of ELANE for 1 hr and mitochondrial ROS was measured by flow cytometry using CM-H2DCFDA dye. (FIG. 11C) Cells were treated with ELANE (50 nM) for 8 hrs, and full length and cleaved CASP3 (c-CASP3) and cleaved PARP (c-PARP) were quantified by immnoblotting. Immunoblots for BMDMs are shown as an example.
The ELANE-induced killing program is not observed in non-cancer cells. Human and mouse non-cancer cells were treated with ELANE and signaling pathways associated with cancer cell death were assessed. Cells were treated with ELANE (50 nM) for 4 hrs, and phosphorylated and total ERK, NFKB, and JNK were quantified by western blotting. Cells were treated with various doses of ELANE for 1 hr and mitochondrial ROS was measured by flow cytometry using CM-H2DCFDA dye. Cells were treated with ELANE (50 nM) for 8 hrs, and full length and cleaved CASP3 and PARP were quantified by western blotting.

B1: neutrophil elastase (protein, listed as Homo sapiens)
chain: MTLGRRLACLFLACVLPALLLGGTALASEIVGGRRARPHAWPFMVSLQLRGGHFCGATLIAPNFVMSAAHCVANVNVRAVRVVLGAHNLSRREPTRQVFAVQRIFENGYDPVNLLNDIVILQLNGSATINANVQVAQLPAQGRRLGNGVQCLAMGWGLLGRNRGIASVLQELNVTVVTSLCRRSNVCTLVRGRQAGVCFGDSGSPLVCNGLIHGIASFVRGGCASGLYPDAFAPVAQFVNWIDSIIQRSEDNPCPHPRDPDPASRTH
notes: purified native ELANE
- CD95 immunoreactivity of non-cancer cells (CD95; 50 nM, 1 hr): loss of immunoreactivity with a C-terminal specific antibody
- uptake by non-cancer cells (CD95; 100 nM, 30 mins): internalized by non-cancer cells
- killing program in healthy non-cancer cells (Healthy non-cancer cells): does not induce a robust killing program in healthy non-cancer cells
